Results on one molecule are retold here after PMC9605714.

For this test, the target named is SUMOylated Hsp82p (Hsp82p^K178C crosslinked with BMOE to Smt3p^Cys at position 178) (S. cerevisiae) (UniProt P02829).

B1: 6xHisMyc-tagged Aha1p (natural protein)
chain: MVVNNPNNWHWVDKNCIGWAKEYFKQKLVGVEAGSVKDKKYAKIKSVSSIEGDCEVNQRKGKVISLFDLKITVLIEGHVDSKDGSALPFEGSINVPEVAFDSEASSYQFDISIFKETSELSEAKPLIRSELLPKLRQIFQQFGKDLLATHGNDIQVPESQVKSNYTRGNQKSSFTEIKDSASKPKKNALPSSTSTSAPVSSTNKVPQNGSGNSTSIYLEPTFNVPSSELYETFLDKQRILAWTRSAQFFNSGPKLETKEKFELFGGNVISELVSCEKDKKLVFHWKLKDWSAPFNSTIEMTFHESQEFHETKLQVKWTGIPVGEEDRVRANFEEYYVRSIKLTFGFGAVL
Take B1: the apparent binding affinity (K app) from Aha1p titration into ATPase reactions of 1 uM Hsp82p form (PK/LDH regenerating system) amounted to 0.31 µM.
